Assay results from patent publication US20230302123A1.

Biological target: ubiquitin-specific protease 7 (USP7/HAUSP), endogenous in human H1299 and HCT116 cells (human) (UniProt Q93009)
Test: cell-based or functional assay

UniProt Q93009, sequence (Q93009 whole entry): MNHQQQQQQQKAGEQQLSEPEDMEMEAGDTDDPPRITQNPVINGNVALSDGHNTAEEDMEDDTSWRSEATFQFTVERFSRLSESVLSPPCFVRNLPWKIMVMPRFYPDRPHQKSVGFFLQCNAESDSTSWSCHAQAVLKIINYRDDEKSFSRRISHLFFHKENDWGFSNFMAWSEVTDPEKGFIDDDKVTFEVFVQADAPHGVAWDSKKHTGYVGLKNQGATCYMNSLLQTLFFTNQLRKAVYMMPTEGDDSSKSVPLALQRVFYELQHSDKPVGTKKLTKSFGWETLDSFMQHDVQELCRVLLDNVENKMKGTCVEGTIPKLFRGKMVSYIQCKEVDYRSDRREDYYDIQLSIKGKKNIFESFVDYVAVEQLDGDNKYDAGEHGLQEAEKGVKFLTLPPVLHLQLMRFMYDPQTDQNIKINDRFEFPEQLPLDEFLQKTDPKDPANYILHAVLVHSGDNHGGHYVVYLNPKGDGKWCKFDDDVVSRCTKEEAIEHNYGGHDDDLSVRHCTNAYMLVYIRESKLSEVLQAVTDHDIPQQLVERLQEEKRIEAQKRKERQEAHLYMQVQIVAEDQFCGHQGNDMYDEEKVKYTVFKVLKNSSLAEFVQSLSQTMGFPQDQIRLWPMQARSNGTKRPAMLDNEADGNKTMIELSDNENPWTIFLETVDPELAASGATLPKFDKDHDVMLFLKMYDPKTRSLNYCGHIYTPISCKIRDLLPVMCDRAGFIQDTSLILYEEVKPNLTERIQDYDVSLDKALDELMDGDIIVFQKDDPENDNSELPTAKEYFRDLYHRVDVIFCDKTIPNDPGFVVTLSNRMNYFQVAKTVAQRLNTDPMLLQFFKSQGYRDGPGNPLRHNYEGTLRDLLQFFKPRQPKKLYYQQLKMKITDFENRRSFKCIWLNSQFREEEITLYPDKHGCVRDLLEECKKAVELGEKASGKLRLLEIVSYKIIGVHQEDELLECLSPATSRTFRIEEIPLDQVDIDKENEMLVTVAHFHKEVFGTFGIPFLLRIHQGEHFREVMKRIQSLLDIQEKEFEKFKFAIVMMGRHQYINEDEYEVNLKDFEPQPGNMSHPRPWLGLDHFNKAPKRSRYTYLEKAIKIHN

DBP-S76A of the virus mutant UBM2 (H5pm4250) (from UniProt P03265 1-529)
USP7 diffusely distributed within the nucleus, 48 h p.i. (immunofluorescence) (% of the UBM2-infected cells): 45
partial relocalization of USP7 into ring-like or rosette-shaped replication centers, 48 h p.i. (immunofluorescence) (% of the UBM2-infected cells): 55
relocalization of USP7 into viral replication centers (immunofluorescence) (% of the infected cells): 100
